Experimental data reported in PMC5650612, “Enhancing Tropane Alkaloid Production Based on the Functional Identification of Tropine-Forming Reductase in Scopolia lurida, a Tibetan Medicinal Plant” (Frontiers in Plant Science, 2017).

Test system: CN1[C@@H]2CC[C@H]1CC(=O)C2
Assay: purified protein
Settings: pH 6.4

SlTRI (Anisodus luridus)
Km: 40.90 ± 7.059 mM
Vmax: 1.95 µmol/min/mg
kcat/Km: 24 M⁻¹ s⁻¹
